Assay results published in publication PMC3072985.

Molecular target: Mycobacterium tuberculosis Bacterioferritin B (BfrB), full length (Mycobacterium tuberculosis H37Rv) (UniProt P9WNE5)
Assay: crystal structure; recombinant BfrB, 11 mg/ml, 20% PEG 3350, 0.1 M Tris pH 8.5, 293 K; 3.0 Å; 24 subunits in the asymmetric unit

For “Mycobacterium tuberculosis Bacterioferritin B (BfrB), full length (from UniProt P9WNE5 1-181) (natural protein)”, the stoichiometry N was 24.
